The results in this text go back to publication PMC4703834.

The target of the assay is Δ4-DgkA (thermostable mutant of Escherichia coli diacylglycerol kinase) (Escherichia coli) (UniProt P0ABN1). Put plainly: crystal structure; in meso (lipid cubic phase) crystals of Δ4-DgkA in 9.9 MAG at 4 °C, soaked with zinc-ACP (ternary complex, 2.7 Å) or without nucleotide; synchrotron data at 100 K.

With “Δ4-DgkA (thermostable mutant of Escherichia coli diacylglycerol kinase) (from UniProt P0ABN1 2-122) (enzyme)”, the stoichiometry N is 3.
